Laboratory results: patent US20190016789A1 (Janssen / Centocor, published 2019)

T1: 83v2-ABD specific for human EGFR with an albumin binding domain
T1 chain: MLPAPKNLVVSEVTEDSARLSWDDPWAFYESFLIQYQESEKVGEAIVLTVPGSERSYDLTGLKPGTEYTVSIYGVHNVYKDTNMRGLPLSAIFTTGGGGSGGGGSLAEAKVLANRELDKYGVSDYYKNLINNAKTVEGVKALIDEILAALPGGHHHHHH

T2: FN3 domain A3 specific for human cMET
T2 construct: it carries a C-terminal His tag
T2 chain: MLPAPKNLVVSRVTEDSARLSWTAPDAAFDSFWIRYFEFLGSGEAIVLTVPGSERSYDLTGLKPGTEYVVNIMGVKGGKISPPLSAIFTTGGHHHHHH

T3: Tencon25
T3 construct: Artificial FN3 domain (centyrin scaffold) with no target specificity; It was the immunogen; also called Tencon-T25
T3 chain: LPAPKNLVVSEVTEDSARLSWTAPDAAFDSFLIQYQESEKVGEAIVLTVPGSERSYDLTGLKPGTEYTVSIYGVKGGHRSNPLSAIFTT

B1: AS7B91 (antibody, mouse IgG2a, kappa)
heavy: QSLEESGGRLVTPGTPLTLTCTVSGIDLSTSVMGWVRQAPGKGLESIGFIYTNVNTYYASWAKGRFTISRTSTTVDLKITSPTTGDTATYFCARAVYAGAMDLWGQGTLVTVSSAKTTAPSVYPLAPVCGDTTGSSVTLGCLVKGYFPEPVTLTWNSGSLSSGVHTFPAVLQSDLYTLSSSVTVTSSTWPSQSITCNVAHPASSTKVDKKIEPRGPTIKPCPPCKCPAPNLLGGPSVFIFPPKIKDVLMISLSPIVTCVVVDVSEDDPDVQISWFVNNVEVHTAQTQTHREDYNSTLRVVSALPIQHQDWMSGKEFKCKVNNKDLPAPIERTISKPKGSVRAPQVYVLPPPEEEMTKKQVTLTCMVTDFMPEDIYVEWTNNGKTELNYKNTEPVLDSDGSYFMYSKLRVEKKNWVERNSYSCSVVHEGLHNHHTTKSFSRTPGK
light: DVVMTQTPASVSGPVGGTVTIKCQASERIYSNLAWYQQKPGQPPKLLIYKASTLASGVSSRFKGSGSGTEFTLTIRDLECADAATYSCQYTSYGSGYVGTFGGGTEVVVEGRADAAPTVSIFPPSSEQLTSGGASVVCFLNNFYPKDINVKWKIDGSERQNGVLNSWTDQDSKDSTYSMSSTLTLTKDEYERHNSYTCEATHKTSTSPIVKSFNRNEC
notes: also called a-Centyrin
B2: AS7B91 scFv H-L CAR (scFv)
chain: QSLEESGGRLVTPGTPLTLTCTVSGIDLSTSVMGWVRQAPGKGLESIGFIYTNVNTYYASWAKGRFTISRTSTTVDLKITSPTTGDTATYFCARAVYAGAMDLWGQGTLVTVSSGGGGSGGGGSGGGGSGGGGSDVVMTQTPASVSGPVGGTVTIKCQASERIYSNLAWYQQKPGQPPKLLIYKASTLASGVSSRFKGSGSGTEFTLTIRDLECADAATYSCQYTSYGSGYVGTFGGGTEVVVEGTTTPAPRPPTPAPTIASQPLSLRPEACRPAAGGAVHTRGLDFACDIYIWAPLAGTCGVLLLSLVITLYCKRGRKKLLYIFKQPFMRPVQTTQEEDGCSCRFPEEEEGGCELRVKFSRSADAPAYKQGQNQLYNELNLGRREEYDVLDKRRGRDPEMGGKPRRKNPQEGLYNELQKDKMAEAYSEIGMKGERRRGKGHDGLYQGLSTATKDTYDALHMQALPPR
notes: Chimeric antigen receptor on mRNA-electroporated human pan T cells; also called BAR-T variant 2; AS7B91 H-L CAR ECD
B3: AS7B91 scFv L-H CAR (scFv)
chain: DVVMTQTPASVSGPVGGTVTIKCQASERIYSNLAWYQQKPGQPPKLLIYKASTLASGVSSRFKGSGSGTEFTLTIRDLECADAATYSCQYTSYGSGYVGTFGGGTEVVVEGGGGGSGGGGSGGGGSGGGGSLEESGGRLVTPGTPLTLTCTVSGIDLSTSVMGWVRQAPGKGLESIGFIYTNVNTYYASWAKGRFTISRTSTTVDLKITSPTTGDTATYFCARAVYAGAMDLWGQGTLVTVSSTTTPAPRPPTPAPTIASQPLSLRPEACRPAAGGAVHTRGLDFACDIYIWAPLAGTCGVLLLSLVITLYCKRGRKKLLYIFKQPFMRPVQTTQEEDGCSCRFPEEEEGGCELRVKFSRSADAPAYKQGQNQLYNELNLGRREEYDVLDKRRGRDPEMGGKPRRKNPQEGLYNELQKDKMAEAYSEIGMKGERRRGKGHDGLYQGLSTATKDTYDALHMQALPPR
notes: Chimeric antigen receptor on mRNA-electroporated human pan T cells; also called BAR-T variant 1; AS7B91 L-H CAR ECD
B4: AS7B16 scFv CAR, H-L orientation (scFv)
chain: QVTLKESGPGILQPSQTLSLTCSFSGFSLNTSGTGVGWIRQPSGKGLEWLAHIWWDDDKGYNPALKSRLTISKNTSSNLVFLKIASVDTADTATYYCVRIKGRMDYWGQGTSVTVSSGGGGSGGGGSGGGGSGGGGSNIMMTQSPSSLAVSAGEKVTMNCKSSQSVLFGSKQKNYLAWYQQKPGQSPKLLIYWASTRESGVPDRFTGSGSGTDFILTISNVQAEDLAVYYCHQYLSLFTFGSGTKLEIKTTTPAPRPPTPAPTIASQPLSLRPEACRPAAGGAVHTRGLDFACDIYIWAPLAGTCGVLLLSLVITLYCKRGRKKLLYIFKQPFMRPVQTTQEEDGCSCRFPEEEEGGCELRVKFSRSADAPAYKQGQNQLYNELNLGRREEYDVLDKRRGRDPEMGGKPRRKNPQEGLYNELQKDKMAEAYSEIGMKGERRRGKGHDGLYQGLSTATKDTYDALHMQALPPR
notes: Chimeric antigen receptor on mRNA-electroporated human pan T cells; also called AS7B16 H2L; AS7B16 H-L CAR ECD
B5: AS7B16 scFv CAR, L-H orientation (scFv)
chain: NIMMTQSPSSLAVSAGEKVTMNCKSSQSVLFGSKQKNYLAWYQQKPGQSPKLLIYWASTRESGVPDRFTGSGSGTDFILTISNVQAEDLAVYYCHQYLSLFTFGSGTKLEIKGGGGSGGGGSGGGGSGGGGSQVTLKESGPGILQPSQTLSLTCSFSGFSLNTSGTGVGWIRQPSGKGLEWLAHIWWDDDKGYNPALKSRLTISKNTSSNLVFLKIASVDTADTATYYCVRIKGRMDYWGQGTSVTVSSTTTPAPRPPTPAPTIASQPLSLRPEACRPAAGGAVHTRGLDFACDIYIWAPLAGTCGVLLLSLVITLYCKRGRKKLLYIFKQPFMRPVQTTQEEDGCSCRFPEEEEGGCELRVKFSRSADAPAYKQGQNQLYNELNLGRREEYDVLDKRRGRDPEMGGKPRRKNPQEGLYNELQKDKMAEAYSEIGMKGERRRGKGHDGLYQGLSTATKDTYDALHMQALPPR
notes: Chimeric antigen receptor on mRNA-electroporated human pan T cells; also called AS7B16 L2H; AS7B16 L-H CAR ECD
B6: AS7B90 (antibody, rat IgG1)
heavy: QSLEESGGRLVTPGTPLTLTCTVSGIDLSTSVMGWVRQAPGKGLESIGFIYTNVNTYYASWAKGRFTISRTSTTVDLKITSPTTGDTATYFCARAVYAGAMDLWGQGTLVTVSSAETTAPSVYPLAPGTALKSNSMVTLGCLVKGYFPEPVTVTWNSGALSSGVHTFPAVLQSGLYTLTSSVTVPSSTWPSQTVTCNVAHPASSTKVDKKIVPRNCGGDCKPCICTGSEVSSVFIFPPKPKDVLTITLTPKVTCVVVDISQDDPEVHFSWFVDDVEVHTAQTRPPEEQFNSTFRSVSELPILHQDWLNGRTFRCKVTSAAFPSPIEKTISKPEGRTQVPHVYTMSPTKEEMTQNEVSITCMVKGFYPPDIYVEWQMNGQPQENYKNTPPTMDTDGSYFLYSKLNVKKEKWQQGNTFTCSVLHEGLHNHHTEKSLSHSPGK
light: DVVMTQTPASVSGPVGGTVTIKCQASERIYSNLAWYQQKPGQPPKLLIYKASTLASGVSSRFKGSGSGTEFTLTIRDLECADAATYSCQYTSYGSGYVGTFGGGTEVVVEGRADAAPTVSIFPPSSEQLASGGASVVCFINKFYPKDISVKWKIDGSERQNDVLNSVTDQDSKDSTYSMSSTLTLTKADYERHNLYTCEVVHKTSASPVVKSFNRNEC

Assays:
[1] = target: anti-BCMA CARTyrins expressed on the surface of primary T cells; assay: cell-based or functional assay
[2] = target: T1, 83v2-ABD specific for human EGFR with …; assay: ELISA, coated FN3 domain in dose-response, supernatant at 1 µg/ml, luminescence
Method: (§1) Three plates were coated with dose-response curves of, FN3 domain A3 specific for human cMET (SEQ ID NO: 31), 83v2-ABD specific for human EGFR with an albumin binding domain (SEQ ID NO: 32), tencon 25 that has no specificity (SEQ ID NO: 28), or negative control protein, all at 50 μL/well in 50 mM PBS. Plates were incubated over night at 4° C. Supernatants were dumped from plates and 200 μL/well Superblock was added to block plates for 1 hour at RT. […] Plates were incubated for 1 hour at RT. Plates were washed 3× with TBS-T. Secondary antibodies (HRP-goat anti-rabbit, rat or mouse) were prepared at 1:10,000 in Superblock and added to the plates. Plates were incubated for 1 hour at RT. Plates were washed 3× with TBS-T. 50 μL/well POD reagent (prepared according to Sigma-Aldrich manufacturer's instructions and incubated in the dark at RT for at least 30 minutes prior to use) was added to plates. After 3-5 minute incubation, protected from light, the M5 was used to read luminescence. The results were plotted in Prism (FIGS. 1A-C) using a Log/Log transformation, and then a four-parameter curve fit. […] It should be noted that there was no non-specific binding to negative control antibody. The mouse version of the antibody, AS7B91, appeared to have binding characteristics more similar to the original rabbit hybridoma antibody.

[3] = target: T2, FN3 domain A3 specific for human cMET; assay: as above
Method: as §1

Tencon25 [4] = target: T3, Tencon25; assay: as above
Method: as §1

Tencon25 [5] = target: T3, Tencon25; assay: flow cytometry on CAR-electroporated primary T cells, labeled Tencon25
Tencon25 [6] = target: T3, Tencon25; assay: flow cytometry, CAR-electroporated T cells stained with 50 nM APC labeled Tencon-25
Method: For AS7B16 and AS7B82, binding was assessed using flow cytometry. Briefly, Twenty-four hours post-electroporation, cells were centrifuged at 100×g for 10 minutes and washed two times in FACS stain buffer (BD Biosciences Catalog#554657). Cells were incubated with either APC labeled […] or AF647 labeled anti-EGFR 83v2 FN3 domains at a final concentration of 50 nM at 4° C. for 1 hour. The labeled cells were washed twice in FACS stain buffer and re-suspended in 200 uL of the same buffer. Data was collected using a BD LSRFortessa flow cytometer and analysis was performed using Flowjo software. All CARTs tested, AS7B16, AS7B82 and AS7B91 bind to both FN3 domains tested, Tencon-T25 and EGFR 83v2. Binding of CARTs occurs in the following manner: ASS7B91>AS7B82>AS7B16.

Row | binding result [2] | binding result [3] | binding result (Tencon25 [4]) | binding result (Tencon25 [5]) | binding result (Tencon25 [6]) | also measured | Binder
1 | binds | binds | binds | – | – | increase in cell number compared to unstimulated cells [1]: 11 fold | B1
2 | – | – | – | binds | – | – | B2
3 | – | – | – | binds | – | – | B3
4 | – | – | – | – | binds | – | B4
5 | – | – | – | – | binds | – | B5
6 | binds | binds | binds | – | – | – | B6
